# From publication PMC10372695 (Proceedings of the National Academy of Sciences of the …, 2023)
# Where “and” joins values, the source holds several entries; their conditions need not be identical. Equal values may be shown once. Read-outs that look alike come from different tables or passages of the source.
# How the values were obtained:
# [1] = target: the molecule itself; experiment: single-molecule fluorescence microscopy with optical tweezers
# [2] = target: the molecule itself; experiment: as above; remark: listed apart in the source
protein,measurement,setting,value
C-terminal GFP-tagged SV40 LT (natural protein) MDKVLNREESLQLMDLLGLERSAWGNIPLMRKAYLKKCKEFHPDKGGDEEKMKKMNTLYKKMEDGVKYAHQPDFGGFWDATEIPTYGTDEWEQWWNAFNEENLFCSEEMPSSDDEATADSQHSTPPKKKRKVEDPKDFPSELLSFLSHAVFSNRTLACFAIYTTKEKAALLYKKIMEKYSVTFISRHNSYNHNILFFLTPHRHRVSAINNYAQKLCTFSFLICKGVNKEYLMYSALTRDPFSVIEESLPGGLKEHDFNPEEAEETKQVSWKLVTEYAMETKCDDVLLLLGMYLEFQYSFEMCLKCIKKEQPSHYKYHEKHYANAAIFADSKNQKTICQQAVDTVLAKKRVDSLQLTREQMLTNRFNDLLDRMDIMFGSTGSADIEEWMAGVAWLHCLLPKMDSVVYDFLKCMVYNIPKKRYWLFKGPIDSGKTTLAAALLELCGGKALNVNLPLDRLNFELGVAIDQFLVVFEDVKGTGGESRDLPSGQGINNLDNLRDYLDGSVKVNLEKKHLNKRTQIFPPGIVTMNEYSVPKTLQARFVKQIDFRPKDYLKHCLERSEFLLEKRIIQSGIALLLMLIWYRPVAEFAQSIQSRIVEWKERLDKEFSLSVYQKMKFNVAMGIGVLDWLRNSDDDDEDSQENADKNEDGGEKNMEDSGHETGIDSQSQGSFQAPQSSQSVHDHNQPYHICRGFTCFKKPPTPPPEPET,stoichiometry N,[1],3 and 4 and 5
same,stoichiometry N,[2],6 and 12
